For data set [1], the target named is T1, DNA polymerase I (Pol I) (Escherichia coli, UniProt P00582 1-928). Briefly: BLI. For orientation: Biolayer interferometry detects binding as a change in optical thickness at a sensor tip.
Data set [2] addresses Pol I endo-mut (endonuclease-dead full-length Pol I) (Escherichia coli, UniProt P00582 1-928, D115A;D140A). Description: cryo-EM structure.
For data set [3], the target named is Pol I Klenow fragment (Pol IKL) (Escherichia coli, UniProt P00582 328-928). Description: cryo-EM structure.
The target in data set [4] is T1, DNA polymerase I (Pol I). Description: BLI. The source holds these as a separate data set.

Like-named read-outs stand apart in the source and are kept apart here.

B1: primed BLI substrate (mixed)
DNA 1: CGCTCACTGGCCGTCGTTTTACAACGTCGTGACTGGGAAAACCCTGGCGTTACC
DNA 2: ACGACGTTGTAAAACGACGGCCAGTGAGCG
With B1, in the data set with DNA polymerase I (Pol I) [1], binding was put at a Kd of 42 ± 5 nM.

B2: flapped Okazaki fragment DNA (cryo-EM) (mixed)
DNA 1: CGCTCACTGGCCGTCGTTTTACAACGTCGTGACTGGGAAAACCCTGGCGTTACC
DNA 2: GGTAACGCCAGGGTTTTCCCAGTC
DNA 3: TTTTTTACGACGTTGTAAAACGACGGCCAGTGAGCG
In the case of B2, the binding result in data set [2] and in data set [3] was “binds” in each case.

B3: continuous BLI substrate (dsDNA)
DNA 1: GGTAACGCCAGGGTTTTCCCAGTCACGACGTTGTAAAACGACGGCCAGTGAGCG
DNA 2: CGCTCACTGGCCGTCGTTTTACAACGTCGTGACTGGGAAAACCCTGGCGTTACC
As for B3, the Kd (as a rule, the equilibrium constant for the complex coming apart) with DNA polymerase I (Pol I) [4] worked out at 285 ± 5 nM.

Values taken from doi:10.1101/2022.08.02.502465.
